The supplement of paper PMC9112550, “Optimization of the antimicrobial peptide Bac7 by deep mutational scanning” (BMC Biology, 2022)

Tested on: Escherichia coli TOP10
Assay: shrunken log2 fold change of peptide-encoding DNA abundance (4.5 h post-induction vs induction); higher = less antimicrobial activity (less host growth inhibition)
Conditions: time post-induction: 4.5 h; library: site-saturation at positions 5, 18, 19, 20
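Note: peptides expressed intracellularly from a pBAD plasmid library in pooled LB shake-flask culture, induced with 0.3% L-arabinose, DNA abundance read by NGS, three biological replicates, DESeq2 with apeglm shrinkage.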

| Sequence | shrunken log2 fold change |
| --- | --- |
| RRIRFRPPRLPRPRPRPICMPRP | -0.214 |
| RRIRCRPPRLPRPRPRPGLDPRP | 0.191 |
| RRIRMRPPRLPRPRPRPKKKPRP | 1.61 |
| RRIRFRPPRLPRPRPRPGLEPRP | -0.0646 |
| RRIRQRPPRLPRPRPRPPIPPRP | -0.0174 |
| RRIRDRPPRLPRPRPRPKWAPRP | 0.0411 |
| RRIRLRPPRLPRPRPRPIKMPRP | -0.347 |
| RRIRMRPPRLPRPRPRPVEHPRP | -0.00663 |
| RRIRERPPRLPRPRPRPRFIPRP | -0.414 |
| RRIRIRPPRLPRPRPRPCCIPRP | -2.25 |
| RRIRWRPPRLPRPRPRPVSPPRP | 0.175 |
| RRIRCRPPRLPRPRPRPQMEPRP | 0.04 |
| RRIRWRPPRLPRPRPRPKMMPRP | -0.106 |
| RRIRQRPPRLPRPRPRPPGKPRP | 0.0921 |
| RRIRVRPPRLPRPRPRPNNAPRP | -0.0777 |
| RRIRCRPPRLPRPRPRPRISPRP | -0.248 |
| RRIRDRPPRLPRPRPRPKLYPRP | 0.0658 |
| RRIRQRPPRLPRPRPRPRACPRP | 0.344 |
| RRIRVRPPRLPRPRPRPGGQPRP | -0.0141 |
| RRIRARPPRLPRPRPRPPHPPRP | 0.527 |
| RRIRTRPPRLPRPRPRPIAIPRP | -0.0261 |
| RRIRNRPPRLPRPRPRPWEVPRP | 0.00408 |
| RRIRFRPPRLPRPRPRPAHGPRP | 0.418 |
| RRIRLRPPRLPRPRPRPEPAPRP | 0.0966 |
| RRIRCRPPRLPRPRPRPTNWPRP | -0.0072 |

| Sequence | shrunken log2 fold change |
| --- | --- |
| RRIRSRPPRLPRPRPRPYWWPRP | -0.231 |
| RRIRFRPPRLPRPRPRPPDGPRP | 0.209 |
| RRIRRRPPRLPRPRPRPIGWPRP | 0.217 |
| RRIRCRPPRLPRPRPRPEDNPRP | 0.11 |
| RRIRYRPPRLPRPRPRPVNRPRP | -0.655 |
| RRIRMRPPRLPRPRPRPRQGPRP | -0.0232 |
| RRIRKRPPRLPRPRPRPFKSPRP | -0.294 |
| RRIRRRPPRLPRPRPRPFCIPRP | -0.174 |
| RRIRCRPPRLPRPRPRPFNYPRP | -0.836 |
| RRIRLRPPRLPRPRPRPSNNPRP | -0.928 |
| RRIRWRPPRLPRPRPRPQFTPRP | -0.313 |
| RRIRGRPPRLPRPRPRPCNPPRP | -0.266 |
| RRIRSRPPRLPRPRPRPASVPRP | 0.377 |
| RRIRWRPPRLPRPRPRPTNDPRP | 0.0116 |
| RRIRIRPPRLPRPRPRPCEKPRP | -0.626 |
| RRIRSRPPRLPRPRPRPKWFPRP | -0.0561 |
| RRIRFRPPRLPRPRPRPGKSPRP | 0.0865 |
| RRIRNRPPRLPRPRPRPNGPPRP | -0.015 |
| RRIRARPPRLPRPRPRPRQWPRP | 0.68 |
| RRIRDRPPRLPRPRPRPEQMPRP | 0.861 |
| RRIRYRPPRLPRPRPRPQCWPRP | -0.321 |
| RRIRSRPPRLPRPRPRPGHAPRP | 0.205 |
| RRIRSRPPRLPRPRPRPIDAPRP | -0.101 |
| RRIRVRPPRLPRPRPRPKEFPRP | 0.0951 |
| RRIRNRPPRLPRPRPRPGIAPRP | 0.0989 |

| Sequence | shrunken log2 fold change |
| --- | --- |
| RRIRPRPPRLPRPRPRPYWAPRP | -0.365 |
| RRIRKRPPRLPRPRPRPVRLPRP | 0.203 |
| RRIRYRPPRLPRPRPRPQWTPRP | -0.0155 |
| RRIRDRPPRLPRPRPRPTCHPRP | 0.0627 |
| RRIRHRPPRLPRPRPRPLWIPRP | -0.505 |
| RRIRYRPPRLPRPRPRPHIFPRP | -0.255 |
| RRIRFRPPRLPRPRPRPQYMPRP | -1.77 |
| RRIRVRPPRLPRPRPRPKADPRP | 0.0681 |
| RRIRSRPPRLPRPRPRPGPAPRP | 0.682 |
| RRIRFRPPRLPRPRPRPIYTPRP | -0.424 |
| RRIRERPPRLPRPRPRPRECPRP | -0.018 |
| RRIRERPPRLPRPRPRPRPVPRP | 0.114 |
| RRIRWRPPRLPRPRPRPHPLPRP | -0.0381 |
| RRIRGRPPRLPRPRPRPRGWPRP | 1.68 |
| RRIRRRPPRLPRPRPRPWFMPRP | -0.125 |
| RRIRWRPPRLPRPRPRPNDVPRP | -0.0909 |
| RRIRARPPRLPRPRPRPCHWPRP | -0.153 |
| RRIRTRPPRLPRPRPRPSRYPRP | -0.23 |
| RRIRTRPPRLPRPRPRPCMWPRP | 0.0746 |
| RRIRMRPPRLPRPRPRPAAMPRP | 0.915 |
| RRIRWRPPRLPRPRPRPMPSPRP | -0.116 |
| RRIRDRPPRLPRPRPRPAFCPRP | 0.111 |
| RRIRYRPPRLPRPRPRPNMQPRP | -0.594 |
| RRIRLRPPRLPRPRPRPSRDPRP | 0.152 |
| RRIRERPPRLPRPRPRPTEGPRP | 0.0858 |

| Sequence | shrunken log2 fold change |
| --- | --- |
| RRIRCRPPRLPRPRPRPRTYPRP | -0.447 |
| RRIRHRPPRLPRPRPRPYTPPRP | -1.32 |
| RRIRPRPPRLPRPRPRPKDHPRP | 0.0743 |
| RRIRFRPPRLPRPRPRPAQPPRP | 0.277 |
| RRIRSRPPRLPRPRPRPIQNPRP | -0.119 |
| RRIRQRPPRLPRPRPRPAHGPRP | 0.19 |
| RRIRYRPPRLPRPRPRPGGHPRP | -0.278 |
| RRIRIRPPRLPRPRPRPLIFPRP | -0.562 |
| RRIRYRPPRLPRPRPRPTIHPRP | -1.2 |
| RRIRTRPPRLPRPRPRPQYDPRP | -0.0819 |
| RRIRSRPPRLPRPRPRPWCSPRP | -0.296 |
| RRIRERPPRLPRPRPRPPDSPRP | -0.303 |
| RRIRTRPPRLPRPRPRPHTCPRP | -0.0347 |
| RRIRYRPPRLPRPRPRPTRTPRP | -0.0719 |
| RRIRWRPPRLPRPRPRPFDEPRP | 0.129 |
| RRIRFRPPRLPRPRPRPSFWPRP | -0.0521 |
| RRIRGRPPRLPRPRPRPVCWPRP | 1.16 |
| RRIRLRPPRLPRPRPRPFIPPRP | -0.355 |
| RRIRQRPPRLPRPRPRPMIFPRP | -0.0627 |
| RRIRCRPPRLPRPRPRPQCQPRP | 0.0557 |
| RRIRKRPPRLPRPRPRPSAVPRP | 0.0941 |
| RRIRMRPPRLPRPRPRPQFNPRP | -0.661 |
| RRIRTRPPRLPRPRPRPNRHPRP | -0.36 |
| RRIRSRPPRLPRPRPRPNSQPRP | -0.118 |
| RRIRPRPPRLPRPRPRPLPKPRP | 0.216 |

| Sequence | shrunken log2 fold change |
| --- | --- |
| RRIRQRPPRLPRPRPRPMFQPRP | -0.467 |
| RRIRCRPPRLPRPRPRPQHVPRP | -0.199 |
| RRIRMRPPRLPRPRPRPKLVPRP | 0.115 |
| RRIRVRPPRLPRPRPRPQEWPRP | -0.0187 |
| RRIRSRPPRLPRPRPRPRNHPRP | -0.0799 |
| RRIRKRPPRLPRPRPRPTMAPRP | 0.638 |
| RRIRQRPPRLPRPRPRPWAFPRP | -0.000467 |
| RRIRCRPPRLPRPRPRPLGVPRP | 0.0123 |
| RRIRVRPPRLPRPRPRPTDWPRP | 0.255 |
| RRIRPRPPRLPRPRPRPPDRPRP | 0.583 |
| RRIRHRPPRLPRPRPRPKSKPRP | -0.598 |
| RRIRRRPPRLPRPRPRPYKNPRP | -0.47 |
| RRIRERPPRLPRPRPRPFGYPRP | -0.0787 |
| RRIRHRPPRLPRPRPRPYQEPRP | -0.138 |
| RRIRRRPPRLPRPRPRPKGWPRP | 0.439 |
| RRIRSRPPRLPRPRPRPIDRPRP | 0.0178 |
| RRIRSRPPRLPRPRPRPICKPRP | -0.494 |
| RRIRDRPPRLPRPRPRPGAYPRP | 0.136 |
| RRIRDRPPRLPRPRPRPTCNPRP | 0.13 |
| RRIRYRPPRLPRPRPRPNGEPRP | -0.0103 |
| RRIRTRPPRLPRPRPRPLNLPRP | -0.548 |
| RRIRWRPPRLPRPRPRPWVDPRP | -0.119 |
| RRIRRRPPRLPRPRPRPPDRPRP | 0.21 |
| RRIRMRPPRLPRPRPRPWMMPRP | 0.024 |
| RRIRSRPPRLPRPRPRPYRMPRP | -0.0162 |

| Sequence | shrunken log2 fold change |
| --- | --- |
| RRIRRRPPRLPRPRPRPEMFPRP | -0.151 |
| RRIRERPPRLPRPRPRPEAKPRP | 0.0152 |
| RRIRERPPRLPRPRPRPCFNPRP | -0.324 |
| RRIRHRPPRLPRPRPRPGSCPRP | -0.108 |
| RRIRRRPPRLPRPRPRPKTFPRP | -0.0358 |
| RRIRVRPPRLPRPRPRPDIMPRP | -0.18 |
| RRIRSRPPRLPRPRPRPWFSPRP | -0.544 |
| RRIRNRPPRLPRPRPRPHMYPRP | 0.0526 |
| RRIRHRPPRLPRPRPRPSYIPRP | -1.77 |
| RRIRKRPPRLPRPRPRPYMEPRP | -0.0534 |
| RRIRPRPPRLPRPRPRPWVYPRP | -0.227 |
| RRIRTRPPRLPRPRPRPWCKPRP | -0.202 |
| RRIRLRPPRLPRPRPRPGDVPRP | 0.0737 |
| RRIRVRPPRLPRPRPRPWGHPRP | 0.0373 |
| RRIRARPPRLPRPRPRPPFYPRP | 0.14 |
| RRIRFRPPRLPRPRPRPLWPPRP | 0.264 |
| RRIRYRPPRLPRPRPRPIDIPRP | -0.0256 |
| RRIRKRPPRLPRPRPRPKDCPRP | -0.0519 |
| RRIRWRPPRLPRPRPRPHDMPRP | -0.202 |
| RRIRDRPPRLPRPRPRPFPRPRP | -0.135 |
| RRIRIRPPRLPRPRPRPVHAPRP | 0.0769 |
| RRIRARPPRLPRPRPRPWFWPRP | 0.544 |
| RRIRSRPPRLPRPRPRPLAVPRP | 0.0333 |
| RRIRFRPPRLPRPRPRPCHHPRP | -0.0196 |
| RRIRTRPPRLPRPRPRPCQDPRP | -0.13 |
